We go through 1 protein from US20040171050A1 (PHARMACIA AND UPJOHN, published 2004).

This series concerns the molecule itself. Description: gel filtration (Superose 200); dynamic light scattering with MgCl2 also gave a monodisperse, dimeric sample; homodimer self-association. (In general: Size exclusion chromatography separates by hydrodynamic size, large species first.)

B1: recombinant S. aureus thymidylate kinase (with polyhistidine [his6] sequence tag) (enzyme)
chain: MGSAFITFEGPEGSGKTTVINEVYHRLVKDYDVIMTREPGGVPTGEEIRKIVLEGNDMDIRTEAMLFAASRREHLVLKVIPALKEGKVVLCDRYIDSSLAYQGYARGIGVEEVRALNEFAINGLYPDLTIYLNVSAEVGRERIIKNSRDQNRLDQEDLKFHEKVIEGYQEIIHNESQRFKSVNADQPLENVVEDTYQTIIKYLEKIRSHHHHHH
notes: Expressed in E. coli with a His6 tag; The crystals used for the structure were of the selenomethionine analogue (methionines replaced by selenomethionine); Gel filtration and light scattering appear to have used the native protein; also called S. aureus TMK; T. kinase
Take B1: the binding result is reported as “binds”.
